# In patent publication US6245545:
# System: SwaI restriction endonuclease (native) (Staphylococcus warneri)
# Test: cleavage_in_vitro
# Details: more than 544,000 units in Source-15S fractions 17-19; restriction activity assayed on M13mp19 RF DNA
substance,measurement,value
M13mp19 RF DNA,activity,544000 units
